Target: NSUN4 (residues 26–384) (human, UniProt Q96CB9 26-384)
Assay: ITC

NSUN4 (residues 26–384), sequence (Q96CB9 26-384): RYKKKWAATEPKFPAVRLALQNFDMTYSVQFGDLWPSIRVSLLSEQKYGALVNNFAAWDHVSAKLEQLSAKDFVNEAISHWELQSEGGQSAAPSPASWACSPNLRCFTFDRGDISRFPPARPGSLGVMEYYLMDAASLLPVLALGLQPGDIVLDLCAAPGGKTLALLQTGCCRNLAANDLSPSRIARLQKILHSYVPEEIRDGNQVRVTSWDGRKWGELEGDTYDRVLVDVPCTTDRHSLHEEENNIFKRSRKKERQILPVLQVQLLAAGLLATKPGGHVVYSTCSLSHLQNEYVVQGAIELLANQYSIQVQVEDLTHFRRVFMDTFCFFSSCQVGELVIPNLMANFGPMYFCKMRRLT

B1: MTERF4 (residues 66–332) (domain or fragment, human, UniProt Q7Z6M4 66-332, looked up)
chain: EPECRRNLVQCLLEKQGTPVVQGSLELERVMSSLLDMGFSNAHINELLSVRRGASLQQLLDIISEFILLGLNPEPVCVVLKKSPQLLKLPIMQMRKRSSYLQKLGLGEGKLKRVLYCCPEIFTMRQQDINDTVRLLKEKCLFTVQQVTKILHSCPSVLREDLGQLEYKFQYAYFRMGIKHPDIVKSEYLQYSLTKIKQRHIYLERLGRYQTPDKKGQTQIPNPLLKDILRVSEAEFLARTACTSVEEFQVFKKLLAREEEESESSTS
**Q.** With B1 as the binder, how does the Kd read?
**A.** The Kd was 13.3 ± 0.4 nM.

**Q.** What about the dH of the same binder?
**A.** Its dH is -11 ± 0.22 kcal/mol.

**Q.** And the “stoichiometry N” value?
**A.** The value was 1.08 ± 0.02.

Reference: PMC3496059 (Structure (London, England : 1993), 2012)
